This test has as its target Stx2k B-subunit (of the Stx2kE167Q toxoid) (Escherichia coli). Kind of test: crystal structure.

Here are results for one substance from publication PMC7022315.

The stoichiometry N is the number of molecules, sites or subunits per partner or assembly. Substance “Stx2k B-subunit (of the Stx2kE167Q toxoid) (natural protein)” returned a stoichiometry N of 5.
